The target in this data set is T1, GST-NAC1(1-199) (Arabidopsis thaliana, UniProt Q84TE6 1-199).
T1 sequence: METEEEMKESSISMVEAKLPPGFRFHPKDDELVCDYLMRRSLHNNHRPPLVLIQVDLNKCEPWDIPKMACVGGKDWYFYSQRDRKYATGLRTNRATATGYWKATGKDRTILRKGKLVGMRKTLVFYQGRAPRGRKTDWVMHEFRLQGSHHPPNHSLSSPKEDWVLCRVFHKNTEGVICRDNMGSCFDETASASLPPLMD
Description: EMSA; LightShift Chemiluminescent EMSA kit (Thermo 20148), manufacturer's instructions; buffer, salt, pH and temperature not stated. The settings on record: protein: recombinant, tags: GST (N-terminal, pGEX-4T-1), chain copies: 2, label: biotin. (In general: Mobility shift assays separate free from complexed probe on a gel.)

The values that follow come from publication PMC9603599, “NAC1 Maintains Root Meristem Activity by Repressing the Transcription of E2Fa in Arabidopsis”.

B1: E2Fa promoter probe P2 (E2Fa-BIO-F2/R2) (dsDNA)
DNA 1: CGTGTAGAGTTGCGATTTGCAGAGAATTGTGATTCTACAATTGGAGGCAAGATGATGAATGTGTGAACTGATTAGCGTAA
DNA 2: TTACGCTAATCAGTTCACACATTCATCATCTTGCCTCCAATTGTAGAATCACAATTCTCTGCAAATCGCAACTCTACACG
On to B1, for which the binding result (blunt, P2 = F2/R2 by number) was “binds”.

B2: E2Fa promoter probe P1 (E2Fa-BIO-F1/R1) (dsDNA)
DNA 1: CGTGAAATGCCAGTGGTCTATGATCGGATTCTCTGTTTCCCGTTCTCCTTCTTTTTTTGGGCCTTAAATCCGTTT
DNA 2: AAACGGATTTAAGGCCCAAAAAAAGAAGGAGAACGGAAACAGAGAATCCGATCATAGACCACTGGCATTTCACG
On to B2, for which the binding result (printed strands differ by one nt: F1 has CCCGTT where R1 complement gives CCGTT (1-nt bulge or typo), P1 = F1/R1 by number) was “binds”.
